# Measurements as given in patent US6720475, “Nucleic acid sequence encoding FLP recombinase” (Pioneer Hi-Bred International, Inc.).
# T1: FLPy (FLP recombinase from native yeast gene) (Saccharomyces cerevisiae, UniProt P03870 SEQ:1-423)
# T1 sequence: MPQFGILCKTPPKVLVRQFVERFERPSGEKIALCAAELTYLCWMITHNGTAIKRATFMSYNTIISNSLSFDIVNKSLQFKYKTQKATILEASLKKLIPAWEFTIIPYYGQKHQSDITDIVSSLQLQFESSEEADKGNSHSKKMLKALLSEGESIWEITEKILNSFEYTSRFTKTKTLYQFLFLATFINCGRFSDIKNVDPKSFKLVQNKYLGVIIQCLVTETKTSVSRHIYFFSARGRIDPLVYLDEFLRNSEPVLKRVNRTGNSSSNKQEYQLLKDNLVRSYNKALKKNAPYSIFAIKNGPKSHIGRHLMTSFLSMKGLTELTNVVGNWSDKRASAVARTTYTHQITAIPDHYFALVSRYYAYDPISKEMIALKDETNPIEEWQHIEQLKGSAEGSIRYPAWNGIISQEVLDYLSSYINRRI
# T2: moFLP (FLP recombinase from maize-codon-optimized gene) (Saccharomyces cerevisiae, UniProt P03870 SEQ:1-423)
# T2 chain: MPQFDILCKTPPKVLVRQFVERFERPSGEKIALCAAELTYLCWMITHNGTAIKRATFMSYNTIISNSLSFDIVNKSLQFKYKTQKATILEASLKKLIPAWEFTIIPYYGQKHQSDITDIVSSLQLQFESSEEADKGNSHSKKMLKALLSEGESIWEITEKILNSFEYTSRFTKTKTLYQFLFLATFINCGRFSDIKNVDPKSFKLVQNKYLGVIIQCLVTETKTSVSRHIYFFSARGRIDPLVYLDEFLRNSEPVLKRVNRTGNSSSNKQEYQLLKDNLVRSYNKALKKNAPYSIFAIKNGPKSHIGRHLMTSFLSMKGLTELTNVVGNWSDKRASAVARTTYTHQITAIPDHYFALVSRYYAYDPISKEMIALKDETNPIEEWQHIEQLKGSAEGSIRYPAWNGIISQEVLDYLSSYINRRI
# Experiments:
# [1] = target: T1, FLPy (FLP recombinase from native yeast …); assay: cell_activity; ED50 for excision between genomic FRT sites in BMS cells, PHP5095 plasmid dose; conditions: tags: expressed in maize cells; chain copies: 4
# From the text: (§1) The moFLP gene produces higher levels of site-specific excision in maize cells than FLPy. The FRT-containing BMS transformants produced in Example IIA were transfected with varied doses of FLP-expressing vectors for site specific excision of genomic transgenic sequences using the methods described above for Example II-C. Plasmids expressing FLP, PHP5095 (FLPy), and PHP5096 (moFLP) are described above for Example I-A (see Table I-A-1). The FRT/moFLP-containing PHP5849 is described above for Example I-F (see Table I-F-1). Control plasmids used were PHP3703 (non-FLP negative control; with UBI promoter and intron, wheat germ agglutinin structural gene, and pinII 3' end), PHP3953 (positive control; with UBI promoter and intron, GUS structural gene, and pinII 3' end), and pUC18 (with no plant expression cassette used as carrier DNA to keep the total DNA load constant). Cell culture methods, DNA bombardment methods, and assay methods were those described above for Example I. The experimental design is shown below in Table II-D-1.
# (§2) GUS activity indicating FLP-mediated excision of genomic DNA in cells transfected with FLYy or moFLP is shown below in Tables II-D-2 and II-D-3. The $ED50$ for each FLP expression plasmid shown in Table II-D-3 was manually determined from graphing the data.
# [2] = target: T2, moFLP (FLP recombinase from …); assay: cell_activity; ED50 for excision between genomic FRT sites in BMS cells, PHP5096 plasmid dose; conditions: chain copies: 4
# From the text: as §1, §2
binder,measurement,setting,value
FRT site (FRT-1) (dsDNA) DNA 1: GAAGTTCCTATTCTCTAGAAAGTATAGGAACTTC DNA 2: GAAGTTCCTATACTTTCTAGAGAATAGGAACTTC,EC50,[1],0.13 ug FLP expression vector
same,EC50,[2],0.03 ug FLP expression vector
